Assay results: publication PMC9709071, “A stable, engineered TL1A ligand co-stimulates T cells via specific binding to DR3” (Scientific Reports, 2022)

B1: Recombinant DR3-Fc (Fc fusion, UniProt Q93038 25-199, looked up)
chain: QGGTRSPRCDCAGDFHKKIGLFCCRGCPAGHYLKAPCTEPCGNSTCLVCPQDTFLAWENHHNSECARCQACDEQASQVALENCSAVADTRCGCKPGWFVECQVSQCVSSSPFYCQPCLDCGALHRHTRLLCSRRDTDCGTCLPGFYEHGDGCVSCPTSTLGSCPERCAAVCGWRQ
notes: death receptor 3 (DR3); dimeric MW ~92 kDa as printed; the catalogue product is, as I recall, the human extracellular domain fused to human IgG1 Fc; also called death receptor 3; source: bought: R&D Systems, cat. # 943-D3
B2: His-TL1A (TL1W2) (ligand, human, UniProt O95150 1-251, looked up)
chain: VYAPLRADGDKPRAHLTVVRQTPTQHFKNQFPALHWEHELGLAFTKNRMNYTNKFLLIPESGDYFIYSQVTFRGMTSECSEIRQAGRPNKPDSITVVITKVTDSYPEPTQLLMGTKSVCEVGSNWFQPIYLGAMFSLQEGDKLMVNVSDISLVDYTKEDKTFFGAFLL
notes: TL1A (TNFSF15), human; C-terminal extracellular domain comprising the TNF homology domain; non-covalent trimer; also called wild-type TL1A; source: Expi293 cells, transfected, purified (Ni-NTA, preparative gel filtration)
B7: Fc-TL1A (TL1W3) (Fc fusion, human, UniProt O95150 1-251, looked up)
chain: VYAPLRADGDKPRAHLTVVRQTPTQHFKNQFPALHWEHELGLAFTKNRMNYTNKFLLIPESGDYFIYSQVTFRGMTSECSEIRQAGRPNKPDSITVVITKVTDSYPEPTQLLMGTKSVCEVGSNWFQPIYLGAMFSLQEGDKLMVNVSDISLVDYTKEDKTFFGAFLL
notes: TL1A (TNFSF15), human; C-terminal extracellular domain comprising the TNF homology domain; 3:2 ratio of Fc:TL1A trimers; also called Fc-TL1A W3; source: Expi293 cells, transfected, purified (mAbSelect SuRe, preparative gel filtration); not shown: Fc (IgG1), N-terminal, kept
B8: HSA-TL1A (TL1W9) (ligand, human, UniProt O95150 1-251, looked up)
chain: VYAPLRADGDKPRAHLTVVRQTPTQHFKNQFPALHWEHELGLAFTKNRMNYTNKFLLIPESGDYFIYSQVTFRGMTSECSEIRQAGRPNKPDSITVVITKVTDSYPEPTQLLMGTKSVCEVGSNWFQPIYLGAMFSLQEGDKLMVNVSDISLVDYTKEDKTFFGAFLL
notes: TL1A (TNFSF15), human; C-terminal extracellular domain comprising the TNF homology domain; ratio of HSA to TL1A trimer 3:1; source: Expi293 cells, transfected, purified (Ni-NTA, preparative gel filtration); not shown: HSA (human serum albumin), N-terminal, kept

Legend:
Fc-TL1A (TL1W3) = target: B7; assay: ELISA; reversed format: TL1A molecules immobilised, DR3 titrated; settings: both partners purified
His-TL1A (TL1W2) = target: B2; assay: as above; settings: both partners purified
HSA-TL1A (TL1W9) = target: B8; assay: as above; settings: both partners purified
Recombinant DR3-Fc = target: B1; assay: ELISA; DR3-Fc immobilised non-specifically on Maxisorp plates (overnight, 4 °C), casein block; TL1A added in 3-fold dilutions, overnight 4 °C; bound TL1A detected with polyclonal rabbit anti-human TL1A-biotin and streptavidin-HRP; concentrations normalised to TL1A trimers; triplicate; settings: both partners purified
DcR3 (TNFRSF6B) = target: T1, DcR3 (TNFRSF6B) (UniProt O95407 30-300); assay: ELISA; TL1A variants on DcR3; who was immobilised is not told for DcR3; triplicate; settings: both partners purified
T1 construct: soluble decoy receptor DcR3 (TNFRSF6B); the catalogue product is, as I recall, an Fc chimera; the SPR methods name capture by goat anti-human-Fc; also called decoy receptor DcR3; recombinant DcR3 protein
T1 sequence (looked up): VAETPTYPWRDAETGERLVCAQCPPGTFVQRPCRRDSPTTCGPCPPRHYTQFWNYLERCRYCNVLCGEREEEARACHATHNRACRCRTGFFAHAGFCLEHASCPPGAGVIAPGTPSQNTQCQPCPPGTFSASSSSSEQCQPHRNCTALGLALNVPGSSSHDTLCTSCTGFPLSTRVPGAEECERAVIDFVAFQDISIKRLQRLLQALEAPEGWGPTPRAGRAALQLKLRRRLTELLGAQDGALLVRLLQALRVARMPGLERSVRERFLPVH

[1] = target: the molecule itself; assay: SEC; preparative gel filtration after affinity capture, Sepax SRT-C SEC-300, 20 mM sodium phosphate pH 6.8; the main peak is taken as the target oligomer

B1 gave an EC50 (Fc-TL1A (TL1W3)) of 2.6 nM, an EC50 (His-TL1A (TL1W2)) of 2.5 nM and an EC50 (HSA-TL1A (TL1W9)) of over 4000 nM.

For B2, the EC50 (Recombinant DR3-Fc) was 26.2 nM, the EC50 (DcR3 (TNFRSF6B)) was 4.6 nM and the “stoichiometry N” value [1] was 3.

B3: TL1W328.001 (K111A L123K M158Y Q167A S187L N207F) (Fc fusion, human)
chain: VYAPLRADGDKPRAHLTVVRQTPTQHFANQFPALHWEHEKGLAFTKNRMNYTNKFLLIPESGDYFIYSQVTFRGYTSECSEIRAAGRPNKPDSITVVITKVTDLYPEPTQLLMGTKSVCEVGSFWFQPIYLGAMFSLQEGDKLMVNVSDISLVDYTKEDKTFFGAFLLGGSGGSGGSVYAPLRADGDKPRAHLTVVRQTPTQHFANQFPALHWEHEKGLAFTKNRMNYTNKFLLIPESGDYFIYSQVTFRGYTSECSEIRAAGRPNKPDSITVVITKVTDLYPEPTQLLMGTKSVCEVGSFWFQPIYLGAMFSLQEGDKLMVNVSDISLVDYTKEDKTFFGAFLLGGSGGSGGSVYAPLRADGDKPRAHLTVVRQTPTQHFANQFPALHWEHEKGLAFTKNRMNYTNKFLLIPESGDYFIYSQVTFRGYTSECSEIRAAGRPNKPDSITVVITKVTDLYPEPTQLLMGTKSVCEVGSFWFQPIYLGAMFSLQEGDKLMVNVSDISLVDYTKEDKTFFGAFLL
notes: TL1A (TNFSF15), human, residues 84-251; first of three units; linker between TL1A units; second unit; third unit; combination mutant in the Fc-scTL1A format; the mutations are written on each of the three TL1A units; source: Expi293 cells, transfected, purified (mAbSelect SuRe); not shown: Fc (IgG1), N-terminal, kept
In the case of B3, the EC50 (Recombinant DR3-Fc) is reported as 8.8 nM.

B4: TL1W327.001 (K111A L123K M158Y Q167A S187L E190F) (Fc fusion, human)
chain: VYAPLRADGDKPRAHLTVVRQTPTQHFANQFPALHWEHEKGLAFTKNRMNYTNKFLLIPESGDYFIYSQVTFRGYTSECSEIRAAGRPNKPDSITVVITKVTDLYPFPTQLLMGTKSVCEVGSNWFQPIYLGAMFSLQEGDKLMVNVSDISLVDYTKEDKTFFGAFLLGGSGGSGGSVYAPLRADGDKPRAHLTVVRQTPTQHFANQFPALHWEHEKGLAFTKNRMNYTNKFLLIPESGDYFIYSQVTFRGYTSECSEIRAAGRPNKPDSITVVITKVTDLYPFPTQLLMGTKSVCEVGSNWFQPIYLGAMFSLQEGDKLMVNVSDISLVDYTKEDKTFFGAFLLGGSGGSGGSVYAPLRADGDKPRAHLTVVRQTPTQHFANQFPALHWEHEKGLAFTKNRMNYTNKFLLIPESGDYFIYSQVTFRGYTSECSEIRAAGRPNKPDSITVVITKVTDLYPFPTQLLMGTKSVCEVGSNWFQPIYLGAMFSLQEGDKLMVNVSDISLVDYTKEDKTFFGAFLL
notes: TL1A (TNFSF15), human, residues 84-251; first of three units; linker between TL1A units; second unit; third unit; combination mutant in the Fc-scTL1A format; the mutations are written on each of the three TL1A units; also called AKYALF190; source: Expi293 cells, transfected, purified (mAbSelect SuRe); not shown: Fc (IgG1), N-terminal, kept
Binder B4 has an EC50 (Recombinant DR3-Fc) of 37.5 nM.

B5: TL1W329.001 (K111A L123K M158Y Q167A E190F N207F) (Fc fusion, human)
chain: VYAPLRADGDKPRAHLTVVRQTPTQHFANQFPALHWEHEKGLAFTKNRMNYTNKFLLIPESGDYFIYSQVTFRGYTSECSEIRAAGRPNKPDSITVVITKVTDSYPFPTQLLMGTKSVCEVGSFWFQPIYLGAMFSLQEGDKLMVNVSDISLVDYTKEDKTFFGAFLLGGSGGSGGSVYAPLRADGDKPRAHLTVVRQTPTQHFANQFPALHWEHEKGLAFTKNRMNYTNKFLLIPESGDYFIYSQVTFRGYTSECSEIRAAGRPNKPDSITVVITKVTDSYPFPTQLLMGTKSVCEVGSFWFQPIYLGAMFSLQEGDKLMVNVSDISLVDYTKEDKTFFGAFLLGGSGGSGGSVYAPLRADGDKPRAHLTVVRQTPTQHFANQFPALHWEHEKGLAFTKNRMNYTNKFLLIPESGDYFIYSQVTFRGYTSECSEIRAAGRPNKPDSITVVITKVTDSYPFPTQLLMGTKSVCEVGSFWFQPIYLGAMFSLQEGDKLMVNVSDISLVDYTKEDKTFFGAFLL
notes: as for B3
Work on B5 yielded an EC50 (Recombinant DR3-Fc) of 8.7 nM.

B6: TL1W331.001 (K111A L123K Q167A S187L E190F N207F) (Fc fusion, human)
chain: VYAPLRADGDKPRAHLTVVRQTPTQHFANQFPALHWEHEKGLAFTKNRMNYTNKFLLIPESGDYFIYSQVTFRGMTSECSEIRAAGRPNKPDSITVVITKVTDLYPFPTQLLMGTKSVCEVGSFWFQPIYLGAMFSLQEGDKLMVNVSDISLVDYTKEDKTFFGAFLLGGSGGSGGSVYAPLRADGDKPRAHLTVVRQTPTQHFANQFPALHWEHEKGLAFTKNRMNYTNKFLLIPESGDYFIYSQVTFRGMTSECSEIRAAGRPNKPDSITVVITKVTDLYPFPTQLLMGTKSVCEVGSFWFQPIYLGAMFSLQEGDKLMVNVSDISLVDYTKEDKTFFGAFLLGGSGGSGGSVYAPLRADGDKPRAHLTVVRQTPTQHFANQFPALHWEHEKGLAFTKNRMNYTNKFLLIPESGDYFIYSQVTFRGMTSECSEIRAAGRPNKPDSITVVITKVTDLYPFPTQLLMGTKSVCEVGSFWFQPIYLGAMFSLQEGDKLMVNVSDISLVDYTKEDKTFFGAFLL
notes: TL1A (TNFSF15), human, residues 84-251; first of three units; linker between TL1A units; second unit; third unit; combination mutant in the Fc-scTL1A format; the mutations are written on each of the three TL1A units; also called Fc-scTL1A-AKALFF; Fc-scTL1A AKALFF; source: Expi293 cells, transfected, purified (mAbSelect SuRe); not shown: Fc (IgG1), N-terminal, kept
For B6, the EC50 (Recombinant DR3-Fc) was 9 nM.

In the case of B7, the “stoichiometry N” value [1] is reported as 6.

With B8 the “stoichiometry N” value [1] was 3.
